The source of these data is paper PMC4537050, “A long pentraxin-3-derived pentapeptide for the therapy of FGF8b-driven steroid hormone-regulated cancers” (Oncotarget, 2015).

Common to all, as to assay: SPR; BIAcore X-100; FGF8b (20 μg/ml in 10 mM sodium acetate, pH 6.0) or other FGFs (10 mM sodium acetate at optimal pH) immobilised on a CM5 sensor chip by EDC/NHS; peptide injected (ARPCA 8 μM to 2000 μM), 4 min at 30 μl/min, 10 min dissociation, in HBS; equilibrium values fitted with the Langmuir equation for monovalent binding
Holding throughout (conditions): both partners purified
On the technique in general: Surface plasmon resonance follows binding to a sensor surface in real time, without labels.

The target in one assay is T1, FGF5 (UniProt P12034 21-268).
T1 construct: fibroblast growth factor 5 (FGF5)
T1 sequence (looked up): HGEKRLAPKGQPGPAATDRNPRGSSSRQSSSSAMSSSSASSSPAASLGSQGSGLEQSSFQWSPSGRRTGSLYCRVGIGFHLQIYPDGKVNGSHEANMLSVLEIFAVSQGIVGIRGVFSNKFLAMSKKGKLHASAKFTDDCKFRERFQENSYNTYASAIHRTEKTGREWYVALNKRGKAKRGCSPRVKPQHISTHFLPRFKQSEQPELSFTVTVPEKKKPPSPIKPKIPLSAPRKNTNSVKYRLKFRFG

The target of a further assay is T2, FGF16 (UniProt O43320 1-207).
T2 construct: fibroblast growth factor 16 (FGF16)

The target in another assay is T3, FGF17 (UniProt O60258 23-216).
T3 construct: fibroblast growth factor 17 (FGF17)
T3 sequence (looked up): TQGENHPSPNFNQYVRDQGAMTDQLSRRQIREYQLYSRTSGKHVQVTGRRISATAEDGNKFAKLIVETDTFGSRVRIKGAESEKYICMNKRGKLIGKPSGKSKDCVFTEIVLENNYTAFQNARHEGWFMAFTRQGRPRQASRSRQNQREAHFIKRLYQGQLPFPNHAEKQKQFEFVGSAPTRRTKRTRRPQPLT

The next assay addresses T4, FGF22 (UniProt Q9HCT0 23-170).
T4 construct: fibroblast growth factor 22 (FGF22)
T4 sequence (looked up): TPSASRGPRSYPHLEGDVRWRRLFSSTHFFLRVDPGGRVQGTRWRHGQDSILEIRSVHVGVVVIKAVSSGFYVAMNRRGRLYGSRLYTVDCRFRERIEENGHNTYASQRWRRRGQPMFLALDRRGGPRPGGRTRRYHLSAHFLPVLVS

The target of a further assay is T5, FGF7 (UniProt P21781 32-194).
T5 construct: fibroblast growth factor 7 (FGF7)
T5 sequence (looked up): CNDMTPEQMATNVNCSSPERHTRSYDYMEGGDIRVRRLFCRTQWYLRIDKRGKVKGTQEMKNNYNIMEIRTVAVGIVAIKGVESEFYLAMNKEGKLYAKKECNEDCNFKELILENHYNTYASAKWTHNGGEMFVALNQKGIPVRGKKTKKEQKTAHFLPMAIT

The target of another assay is T6, FGF20 (UniProt Q9NP95 1-211).
T6 construct: fibroblast growth factor 20 (FGF20)
T6 sequence (Q9NP95 whole entry): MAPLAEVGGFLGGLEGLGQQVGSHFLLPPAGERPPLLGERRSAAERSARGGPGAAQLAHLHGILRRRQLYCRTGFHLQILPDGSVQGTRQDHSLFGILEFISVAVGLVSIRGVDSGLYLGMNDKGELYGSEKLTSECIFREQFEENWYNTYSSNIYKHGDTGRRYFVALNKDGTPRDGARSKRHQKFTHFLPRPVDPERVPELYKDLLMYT

The target in a further assay is T7, FGF18 (UniProt O76093 28-207).
T7 construct: fibroblast growth factor 18 (FGF18)
T7 sequence (looked up): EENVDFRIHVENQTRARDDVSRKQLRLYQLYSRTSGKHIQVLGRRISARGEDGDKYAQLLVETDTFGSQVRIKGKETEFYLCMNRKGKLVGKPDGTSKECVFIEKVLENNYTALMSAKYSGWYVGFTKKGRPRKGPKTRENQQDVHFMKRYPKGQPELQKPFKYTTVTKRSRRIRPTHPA

B1: Ac-ARPCA-NH2, acetylated pentapeptide corresponding to PTX3(100-104) (peptide)
peptide: Ac-ARPCA-NH2
notes: long pentraxin-3 (PTX3), residues 100-104 of the N-terminal extension; source: synthetic peptide, provided by R. Longhi and A. Gori (CNR, Milano, Italy)
On to B1, for which the Kd in the assay with FGF5 worked out at 299 µM; with FGF16, 112 µM; in the assay with FGF17 it was 476 µM; in the assay with FGF22 it was 129 µM; with FGF7 it was 885 µM; in the assay with FGF20, 264 µM. In addition, in the assay with FGF18, the Kd was found to be 26 µM.

What is called Kd is the constant that tells how readily two partners part at equilibrium.
